Here are results for 2 substances from patent publication US20240011000.

Data set [1] has as its system Br512 (villin headpiece HP47-Bst-LF fusion DNA polymerase) (Geobacillus stearothermophilus / Gallus gallus fusion).
Data set [2] has as its target Bst 2.0 DNA polymerase (UniProt P52026). To be noted: RT-LAMP-OSD, 300 genomes, isothermal buffer, 65 C.
Data set [3] deals with Bst-LF (DNA polymerase I large fragment) (Geobacillus stearothermophilus). To be noted: RT-LAMP-OSD, G6D buffer, 65 C.

Sequence of UniProt P52026 (P52026 297-876): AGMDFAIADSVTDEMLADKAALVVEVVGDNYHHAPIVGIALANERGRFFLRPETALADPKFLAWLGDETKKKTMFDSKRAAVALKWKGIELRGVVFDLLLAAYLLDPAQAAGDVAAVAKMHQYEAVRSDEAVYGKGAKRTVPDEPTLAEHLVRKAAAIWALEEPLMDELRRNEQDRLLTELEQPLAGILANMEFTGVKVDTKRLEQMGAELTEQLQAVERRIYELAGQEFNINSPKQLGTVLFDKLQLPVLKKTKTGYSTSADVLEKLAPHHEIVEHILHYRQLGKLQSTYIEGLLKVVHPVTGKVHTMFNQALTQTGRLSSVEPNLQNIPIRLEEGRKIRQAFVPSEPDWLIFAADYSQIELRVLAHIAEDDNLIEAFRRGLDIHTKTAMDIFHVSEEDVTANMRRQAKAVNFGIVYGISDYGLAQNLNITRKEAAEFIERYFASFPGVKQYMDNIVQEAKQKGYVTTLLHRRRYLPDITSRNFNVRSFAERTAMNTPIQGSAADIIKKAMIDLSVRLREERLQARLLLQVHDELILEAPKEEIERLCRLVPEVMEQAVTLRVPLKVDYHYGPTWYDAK

With SARS-CoV-2 RNA, 6-Lamb target, the values for the activity (% assays positive) in data set [1], in data set [2] and in data set [3] were 100, 75 and 33, respectively.
On the same counts, the results for SARS-CoV-2 RNA, NB (N gene) target are 80, 25 and 16.
